Data on 2 molecules can be found in patent publication US20250277026A1 (NOVAROCK BIOTHERAPEUTICS, published 2025).

In assay [1] the target is T1, human Claudin-6 (human, UniProt P56747 1-220).
T1 construct: also called CLDN6
T1 sequence: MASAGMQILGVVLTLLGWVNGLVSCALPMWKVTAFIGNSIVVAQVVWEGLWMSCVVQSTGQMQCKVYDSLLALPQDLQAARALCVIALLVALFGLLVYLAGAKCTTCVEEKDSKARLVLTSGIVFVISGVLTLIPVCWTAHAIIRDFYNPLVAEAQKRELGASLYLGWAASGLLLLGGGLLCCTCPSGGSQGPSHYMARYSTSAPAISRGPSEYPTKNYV
The assay can be described thus: FACS dose response, Claudin-6-HEK293 cells.

Assay [2] concerns the target T1, human Claudin-6. In words: FACS dose response, Claudin-6-CHO cells.
Procedure: (§1) Briefly, Claudin-6-CHO-K1 cells verse parental CHO-K1 cells were incubated with anti-CLDN6 antibodies for 2 hours at 4° C. Cells were fixed with 2% PFA (Alfa Aesar, cat #: J61899) for 15 minutes at 4° C. and then washed. […] Flow cytometric analyses were performed on a flow cytometry instrument (Intellicyte, IQue plus, Sartorius).
Assay [3] deals with T1, human Claudin-6. The assay can be described thus: cell-based or functional assay.
Assay [4] deals with T2, human Claudin-9 (human, UniProt O95484 1-217).
T2 construct: On transfected HEK293 cells; also called CLDN9
T2 sequence: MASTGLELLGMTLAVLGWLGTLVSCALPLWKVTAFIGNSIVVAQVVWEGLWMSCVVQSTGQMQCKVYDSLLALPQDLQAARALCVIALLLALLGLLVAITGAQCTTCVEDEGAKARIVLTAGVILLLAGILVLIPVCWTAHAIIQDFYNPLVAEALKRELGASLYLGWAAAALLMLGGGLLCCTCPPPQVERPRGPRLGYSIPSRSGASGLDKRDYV
In words: FACS dose response, Claudin-9-HEK293 cells.
Procedure: (§2) The binding specificity of the disclosed anti-Claudin-6 antibodies were further assessed for binding to Claudin-9 by FACS. Briefly, Claudin-9-HEK293 cells (GenScript, Item #U3288DL180_4) were incubated with recombinant Claudin-6 antibodies for 2 hours at 4° C. Cells were fixed with 2% PFA (Alfa Aesar, cat #: J61899) for 15 minutes at 4° C. and then washed. […] Flow cytometric analyses were performed on a flow cytometry instrument (Intellicyte, IQue plus, Sartorius).

The target in assay [5] is T2, human Claudin-9. In words: FACS, Claudin-9-HEK293 cells, 5 µg/ml. Background: A flow cytometer gives signals particle by particle.
Procedure: as §2
For assay [6], the target named is T3, human Claudin-4 (human, UniProt O14493 1-209).
T3 construct: On transfected CHO-K1 cells, or endogenous on MCF7 cells; also called CLDN4
T3 sequence: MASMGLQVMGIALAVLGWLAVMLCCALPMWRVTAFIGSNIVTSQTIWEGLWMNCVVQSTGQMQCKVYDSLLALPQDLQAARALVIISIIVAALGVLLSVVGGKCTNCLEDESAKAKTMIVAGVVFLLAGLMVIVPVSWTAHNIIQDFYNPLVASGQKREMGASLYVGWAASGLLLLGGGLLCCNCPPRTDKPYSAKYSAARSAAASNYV
In words: FACS on Claudin-4-CHO-K1 cells, MFI relative to the isotype control.
Procedure: as §1

The target in assay [7] is T1, human Claudin-6. The assay can be described thus: FACS, Claudin-6-CHO-K1 cells, 5 µg/ml.
Procedure: as §1
Assay [8] addresses T3, human Claudin-4. The assay can be described thus: FACS on MCF7 cells, which endogenously express Claudin-3 and Claudin-4; MFI relative to the isotype control.
The target of assay [9] is T1, human Claudin-6. The assay can be described thus: cell-based or functional assay. The source holds these as a separate data set.
In assay [10] the target is T1, human Claudin-6. In words: FACS, OV90 cells (endogenous CLDN6).
Procedure: (§3) Cells were fixed with 2% PFA (Alfa Aesar, catalog number: J61899) for 15 minutes at 4° C. and then washed. […] Flow cytometric analyses were performed on a flow cytometry instrument (Intellicyte, IQue plus, Sartorius).
Assay [11] addresses T1, human Claudin-6. The assay can be described thus: FACS, NEC8 cells (endogenous CLDN6), recombinant antibody.
Assay [12] concerns the target T3, human Claudin-4. In words: FACS on Claudin-4-CHO-K1 cells, MFI.
Procedure: as §1
Assay [13] deals with T1, human Claudin-6. In words: cell-based or functional assay. The source holds these as a separate data set.
Assay [14] deals with T1, human Claudin-6. In words: FACS dose response, NEC8 cells (endogenous CLDN6).
In assay [15] the target is T1, human Claudin-6. The assay can be described thus: cell-based or functional assay. The source holds these as a separate data set.
The target in assay [16] is T1, human Claudin-6. In words: FACS dose response, Claudin-6-HEK293 cells. This is another data set of the same source.
In assay [17] the target is T1, human Claudin-6. The assay can be described thus: FACS, NEC8 cells (endogenous CLDN6).
Procedure: as §3
Assay [18] deals with T1, human Claudin-6. The assay can be described thus: FACS dose response, NEC8 cells (endogenous CLDN6), hybridoma-purified antibody.
Procedure: as §3
(§4) The anti-CLDN6 antibodies were also evaluated for their binding affinity to Claudin-6 overexpressing cell lines by FACS.
Assay [19] addresses T1, human Claudin-6. In words: FACS, NEC8 cells (endogenous CLDN6), 10 µg/ml, hybridoma-purified antibody.
Procedure: as §3
Assay [20] addresses T1, human Claudin-6. In words: FACS, Claudin-6-HEK293 cells, 10 µg/ml, hybridoma-purified antibody.
The target in assay [21] is T1, human Claudin-6. The assay can be described thus: FACS dose response, Claudin-6-CHO-K1 cells, hybridoma-purified antibody.
Procedure: as §4
Assay [22] deals with T1, human Claudin-6. The assay can be described thus: FACS dose response, Claudin-6-HEK293 cells, hybridoma-purified antibody.
Procedure: as §4
The target of assay [23] is T2, human Claudin-9. The assay can be described thus: FACS, Claudin-9-HEK293 cells, 10 µg/ml, hybridoma-purified antibody.
For a further assay, the target named is T4, human Claudin-3 (human, UniProt O15551 1-220).
T4 construct: On transfected CHO-K1 cells, or endogenous on MCF7 cells; also called CLDN3
T4 sequence: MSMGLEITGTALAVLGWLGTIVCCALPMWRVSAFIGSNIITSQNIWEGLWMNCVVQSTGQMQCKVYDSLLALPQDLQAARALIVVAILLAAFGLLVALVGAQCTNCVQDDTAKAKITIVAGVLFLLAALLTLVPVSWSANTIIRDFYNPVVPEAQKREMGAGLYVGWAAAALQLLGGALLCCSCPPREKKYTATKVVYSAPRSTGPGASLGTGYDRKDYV
In words: FACS, CHO-K1 cells overexpressing Claudin-3 (CHO-K1-CLDN3), serial dilution, MFI.

B1: NR.N6.Ab1 (antibody, human IgG1, V domains shown)
VH: QVQLVQSGAEVKKPGASVKVSCKASGNTFTSYDINWVRQATGQGLEWMGWMNPNSGNTGYAQKFQGRVTMTRNTSISTAYMELSSLRSEDTAVYYCVYYNYVWGSFRFDDWGQGTLVTVSS
VL: DIQLTQSPSFLSASVGDRVTITCRASQGISSYLAWYQQKPGKAPKLLIYAASTLQSGVPSRFSGSGSGTEFTLAVSSLQPEDFATYYCQQLNSYPYTFGQGTKLEIK
notes: Human variable domains from Trianni mice; also called NR.NR6.Ab1
On to B1, for which the EC50 was found to be 0.55 nM with human Claudin-6 [1]; 0.97 nM in the assay with human Claudin-6 [2]; 6.72 nM with human Claudin-9 [4]; 1.39 nM in the assay with human Claudin-6 [14]; 0.63 nM in the assay with human Claudin-6 [16]. Moreover, the “endocytosis-mediated cytotoxicity on OV90 cells, EC50” value with human Claudin-6 [3] is 1.08 nM. The “fold MFI over isotype control” value turned out to be 16 fold with human Claudin-9 [5]; 1.1 x with human Claudin-4 [6]; 28 fold with human Claudin-6 [7]; 0.9 x with human Claudin-4 [8]; 19 fold with human Claudin-6 [10]; 32 fold with human Claudin-6 [11]. For the same molecule, the “fold MFI over isotype control” value with human Claudin-6 [17] is 27 fold. In addition, the “endocytosis-mediated cytotoxicity (anti-hFc Fab-MMAF, CellTiter-Glo) on NEC8 cells, EC50 mean (St. Dev. 0.11)” value with human Claudin-6 [9] stood at 0.2 nM. The binding result in the assay with human Claudin-4 [12] is “no binding”. Moreover, the “endocytosis killing (anti-hFc Fab-MMAF, CellTiter-Glo, 72 h) on NEC8 cells, EC50” value in the assay with human Claudin-6 [13] worked out at 0.14 nM. The “ADCC reporter assay on NEC8 cells, EC50” value with human Claudin-6 [15] was found to be 0.4 nM.

B2: NR.N6.Ab6 (antibody, V domains shown)
VH: QVQLQESGPGLVKPSETLSLTCTVSGGSISSYYWSWIRQPPGKGLEWIGYIYYSGSTNYNPSLKSRVTISLDTSKNQFSLKLTSVTAADTAVYYCARGSIPVAGTSYFYYYGMDVWGQGTTVTVSS
VL: EIVMTQSPATLSLSPGERATLSCRASQSVSSSYLSWYQQKPGQAPRLLIYGASTRATGIPARFSGSGSGTDFTLTISSLQPEDFAVYYCQQDYNLPWTFGQGTKVEIK
Take B2: the EC50 with human Claudin-6 [18] is 5.63 nM; with human Claudin-6 [21], 3.06 nM; in the assay with human Claudin-6 [22], 4.11 nM. Moreover, the results for the “fold MFI over isotype control” value with human Claudin-6 [19], with human Claudin-6 [20] and in the assay with human Claudin-9 [23] were 23 fold, 60 fold and 47 fold, respectively. Moreover, the binding result in the assay with human Claudin-3 was “no binding (tested: log 1.8 (about 67 nM))”.

Usually EC50 stands for the concentration giving half of the maximal effect. Lower therefore signals higher potency in that assay.
